For assay [1], the target named is T1, human LRRC15 extracellular domain with C-terminal His tag (human, UniProt Q8TF66 22-538).
T1 construct: Recombinant, made in HEK293; the entry holds the extracellular domain and the His tag; SPR analyte; also called TPP-1545; hLRRC15 CT-His
T1 sequence: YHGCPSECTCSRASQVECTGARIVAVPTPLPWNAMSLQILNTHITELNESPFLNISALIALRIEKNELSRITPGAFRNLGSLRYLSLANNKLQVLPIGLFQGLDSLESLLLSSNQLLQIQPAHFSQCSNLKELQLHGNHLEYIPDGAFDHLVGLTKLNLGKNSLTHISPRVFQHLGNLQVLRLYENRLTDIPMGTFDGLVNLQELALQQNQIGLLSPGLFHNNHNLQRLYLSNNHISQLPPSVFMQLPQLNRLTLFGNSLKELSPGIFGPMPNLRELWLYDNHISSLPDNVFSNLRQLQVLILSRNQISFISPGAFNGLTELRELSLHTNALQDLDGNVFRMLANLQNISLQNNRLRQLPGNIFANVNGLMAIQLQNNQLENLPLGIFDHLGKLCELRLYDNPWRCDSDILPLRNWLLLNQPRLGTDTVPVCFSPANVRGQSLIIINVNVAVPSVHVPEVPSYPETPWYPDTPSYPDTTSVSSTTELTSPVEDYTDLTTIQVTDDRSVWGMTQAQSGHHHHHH
Kind of assay: SPR (Example 6), overview table, repeats Table 9; head prints [M^-1]. The method, then:
(§1) To assess the binding kinetics and affinity of anti-LRRC15 antibodies as well as their species cross-reactivity profile, binding assays were conducted using surface plasmon resonance (SPR). Binding assays were performed on a Biacore T200 instrument at 25° C. using assay buffer HBS EP+, 1 mg/ml BSA, 300 mM NaCl, 0.05% NaN3. Antibodies were captured via anti-human Fc IgGs covalently amine coupled to a CM5 sensor chip and human, mouse and cynomolgus LRRC15 were used as analytes in a concentration series from 1.56-200 nM in multi cycle kinetics mode. […] Obtained sensorgrams were fitted to a 1:1 Langmuir binding model to derive kinetic data.

Assay [2] deals with T2, cynomolgus (Macaca fascicularis) LRRC15 extracellular domain with C-terminal His tag (cynomolgus monkey (Macaca fascicularis), UniProt Q8TF66 22-538 (human entry)).
T2 construct: Recombinant, made in HEK293; the entry holds the extracellular domain and the His tag; SPR analyte; also called TPP-9046
T2 chain: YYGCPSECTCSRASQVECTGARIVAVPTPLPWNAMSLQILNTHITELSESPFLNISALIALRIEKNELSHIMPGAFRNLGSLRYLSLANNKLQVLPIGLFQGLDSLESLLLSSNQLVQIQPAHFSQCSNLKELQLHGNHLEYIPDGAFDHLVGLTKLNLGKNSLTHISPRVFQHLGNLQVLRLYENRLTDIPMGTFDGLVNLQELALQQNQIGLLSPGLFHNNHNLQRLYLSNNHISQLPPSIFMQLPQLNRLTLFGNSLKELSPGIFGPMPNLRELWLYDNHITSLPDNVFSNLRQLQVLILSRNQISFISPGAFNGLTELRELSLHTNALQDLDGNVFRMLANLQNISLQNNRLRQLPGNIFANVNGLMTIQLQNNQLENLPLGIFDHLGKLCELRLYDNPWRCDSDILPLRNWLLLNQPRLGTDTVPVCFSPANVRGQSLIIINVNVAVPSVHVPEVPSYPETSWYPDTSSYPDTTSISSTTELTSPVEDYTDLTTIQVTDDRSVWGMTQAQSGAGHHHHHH
Described as above. As for the experimental part:
as §1

Assay [3] deals with T1, human LRRC15 extracellular domain with …. The experiment in a line: SPR Biacore T200, 25°C, antibody captured, LRRC15 analyte. As for the experimental part:
as §1
A general note: In SPR one partner is held on a chip, and binding of the other changes the refractive index at the surface.

Assay [4] concerns the target T2, cynomolgus (Macaca fascicularis) LRRC15 …. Described as above. As for the experimental part:
as §1

Assay [5] has as its target T1, human LRRC15 extracellular domain with …. The experiment in a line: calculated from SPR kd, 10°C. As for the experimental part:
(§2) To assess if anti-LRRC-15 antibodies show a difference in binding at different temperatures, binding assays were conducted using surface plasmon resonance (SPR). Binding assays were performed on a Biacore T200 instrument at temperatures of 10° C., 20° C., 25° C. and 37° C. with assay buffer HBS EP+, 1 mg/ml BSA (bovine serum albumine), 300 mM NaCl, 0.05% NaN₃. Antibodies were captured via anti-human Fc IgGs covalently amine coupled to a CM5 sensor chip and human LRRC15 was used as an analyte in a concentration series from 1.56-200 nM in multi cycle kinetics mode. Pre-experiments were conducted to have an equal capture level at each temperature. Obtained sensorgrams were fitted to a 1:1 Langmuir binding model to derive kinetic data.

Assay [6] has the same target. The experiment in a line: SPR at 10-37°C (Example 3). As for the experimental part:
as §2

The target is the same in assay [7]. The experiment in a line: calculated from SPR kd, 25°C. The method, then: as §2
Assay [8] has the same target. Kind of assay: calculated from SPR kd, 20°C. As for the experimental part: as §2
The target is the same in assay [9]. The experiment in a line: SPR thermodynamics (van't Hoff/Eyring), 10-37°C. The method, then:
as §2, with “Thermodynamics help to explain why an interaction is happening and what the driving forces for the interaction are. To” for “To”, “the thermodynamic parameters for anti-LRRC15” for “if anti-LRRC-15”, “antibodies” for “antibodies show a difference in binding at different temperatures,”, “BSA,” for “BSA (bovine serum albumine),”, “NaN3.” for “NaN₃.”, “data. Thermodynamic parameters were obtained using the integrated thermodynamics wizard in the Biacore T200 software. Van′t Hoff and Eyring plots were calculated and plotted and thermodynamic parameters were derived.” for “data.”

For assay [10] the target is unchanged. Kind of assay: SPR Biacore T200, antibody captured, LRRC15 analyte, 37°C. The method, then:
as §2

The target is the same in assay [11]. Kind of assay: SPR Biacore T200, antibody captured, LRRC15 analyte, 25°C. The method, then: as §2
For assay [12] the target is unchanged. Kind of assay: SPR Biacore T200, antibody captured, LRRC15 analyte, 20°C. As for the experimental part: as §2
Assay [13] has the same target. Kind of assay: calculated from SPR kd, 37°C. As for the experimental part: as §2
The target is the same in assay [14]. The experiment in a line: SPR Biacore T200, antibody captured, LRRC15 analyte, 10°C. As for the experimental part:
as §2

The term Kd denotes a measure of binding affinity in units of concentration.

B1: TPP-17405 (antibody, human IgG1, kappa, V domains shown)
VH: EVQLVQSGAEVKKPGASVKVSCKASGYKFSSYWIEWVKQAPGQGLEWIGEILPGSDTTNYNEKFKDRATFTSDTSINTAYMELSRLRSDDTAVYYCARDRGNYRAWFQYWGQGTLVTVSS
VL: DIQMTQSPSSLSASVGDRVTITCRASQRISSYLNWYQQKPGGAPKFLIYYASSLQSGVPSRFSGSGSGTDYTLTISSLQPEDFATYYCDQGLELPWTFGGGTKVEIKR
notes: also called 438H-M345-F05-hIgG1Kappa
For B1, the Kd in assay [1] was found to be 0.86 nM; in assay [2], 0.78 nM; in [3], 0.86 nM; in assay [4], 0.78 nM.

B2: TPP-17419 (antibody, human IgG1, kappa, V domains shown)
VH: EVQLVQSGAEVKKPGASVKVSCKASGYKFSSYWIEWVKQAPGQGLEWIGEILPGSDWTNYNEKFKDRATFTSDTSINTAYMELSRLRSDDTAVYYCARDRGNYRAWFQYWGQGTLVTVSS
VL: DIQMTQSPSSLSASVGDRVTITCRISQSISSYLNWYQQKPGGAPKFLIYYASSLQSGVPSRFSGSGSGTDYTLTISSLQPEDFATYYCQQGLRLPWTFGGGTKVEIKR
notes: also called 438H-M307-H07-hIgG1Kappa
For the molecule B2, the Kd came to 3.4 nM in [1], 2.5 nM in assay [2], 3.4 nM in assay [3] and 2.5 nM in assay [4].

B3: TPP-17418 (antibody, human IgG1, kappa, V domains shown)
VH: EVQLVQSGAEVKKPGASVKVSCKASGYKFSSYWIEWVKQAPGQGLEWIGEILPGSDWTNYNEKFKDRATFTSDTSINTAYMELSRLRSDDTAVYYCARDRGNYRAWFQYWGQGTLVTVSS
VL: DIQMTQSPSSLSASVGDRVTITCRASQSISSYLNWYQQKPGGAPKFLIYYASSLQSGVPSRFSGSGSGTDYTLTISSLQPEDFATYYCQQGFSLPWTFGGGTKVEIKR
notes: also called 438H-M308-H05_B-hIgG1Kappa
For B3, the Kd worked out at 1.1 nM in assay [1], 0.99 nM in assay [2], 1.1 nM in [3] and 0.99 nM in [4].

B4: TPP-17073 (antibody, human IgG1, kappa, V domains shown)
VH: EVQLLESGGGLVQPGGSLRLSCAASGFTFSGYMMSWVRQAPGKGLEWVSGIYPSAGYTLYADSVKGRFTISRDNSKNTLYLQMNSLRAEDTAVYYCAREKAADLFGSYSEALDYWGQGTLVTVSS
VL: DIQMTQSPDSLSASVGDRVTITCRASQDVGSWLAWYQQKPGKAPKLLIFAASYLESGIPSRFSGSGSGTDFTLTISSLQPEDFATYYCQQANGFPLTFGGGTKVEIKR
notes: also called 438H-M113-N15-hIgG1
Regarding B4, the Kd stood at 0.21 nM in assay [1], 0.18 nM in assay [2], 0.21 nM in assay [3] and 0.18 nM in assay [4].

B5: TPP-14392 (antibody, human IgG1, kappa, V domains shown)
VH: EVQLLESGGGLVQPGGSLRLSCAASGFTFSGYMMSWVRQAPGKGLEWVSGIYPSPGYTYYADSVKGRFTISRDNSKNTLYLQMNSLRAEDTAVYYCAREKASDLSGSYSEALDYWGQGTLVTVSS
VL: DIQMTQSPDSLSASVGDRVTITCRASQDVGSWLAWYQQKPGKAPKLLIFAASYLESGIPSRFSGSGSGTDFTLTISSLQPEDFATYYCQQANGFPLTFGGGTKVEIKR
notes: also called 13612-rec05-hIgG1Kappa
As to B5, the “Complex Half Life” value in [5] is 3.21 h; in assay [7], 0.567 h; in assay [8], 1.48 h; in assay [13], 2.3 min. Further, the “Temperature dependent loss in binding affinity” value in [6] is 56.9 fold. Further, the Kd is 5.9 nM in [1]; 10 nM in assay [2]; 91 nM in assay [10]; 6.8 nM in assay [11]; 5.9 nM in assay [3]; 10 nM in assay [4]. In assay [12], the affinity, expressed as Kd, was 2.9 nM. In addition, in assay [9], the “-TΔS” value is 15.3 kcal/mol. Besides, the “ΔG^0” value in assay [9] is -11 kcal/mol. Besides, in [9], the “ΔH^0” value is -26.3 kcal/mol.

B6: TPP-17074 (antibody, human IgG1, kappa, V domains shown)
VH: EVQLLESGGGLVQPGGSLRLSCAASGFTFSGYMMSWVRQAPGKGLEWVSGIYPSGGYALYADSVKGRFTISRDNSKNTLYLQMNSLRAEDTAVYYCAREKAADLFGSYSEALDYWGQGTLVTVSS
VL: DIQMTQSPDSLSASVGDRVTITCRASQDVGSWLAWYQQKPGKAPKLLIFAASYLESGIPSRFSGSGSGTDFTLTISSLQPEDFATYYCQQANGFPLTFGGGTKVEIKR
notes: also called 438H-M161-K22-hIgG1
As to B6, the results for the “Complex Half Life” value in assay [5], in [7] and in assay [8] were 10.7 h, 1.6 h and 3.16 h, respectively. Besides, in assay [6], the “Temperature dependent loss in binding affinity” value was determined as 33.3 fold. For the same molecule, the dissociation constant (Kd) was 0.19 nM in [1]; 1.9 nM in assay [10]; 0.22 nM in assay [11]; 0.057 nM in [14]; 0.19 nM in assay [3]; 0.14 nM in assay [12]. The “-TΔS” value in assay [9] turned out to be 9.56 kcal/mol. Further, the “ΔG^0” value in assay [9] was -12.9 kcal/mol. For the same molecule, in assay [9], the “ΔH^0” value is -22.7 kcal/mol.

(Values after patent US20240108766A1 (Bayer, published 2024).)
